Molecular target: IbcK (isobutylene catabolism gene K product), epoxide hydrolase from Mycolicibacterium sp. ELW1 (Mycolicibacterium sp. ELW1)
Assay: SEC; Biosep-SEC S3000 column on UPLC, 10 mM Tris-HCl pH 7, 150 mM NaCl, 0.3 mL/min, 10 µL injected; two peaks, dimer to monomers

Substance: IbcK (isobutylene catabolism gene K product), epoxide hydrolase from Mycolicibacterium sp. ELW1 (enzyme)
- stoichiometry N: 2

Reference: paper PMC12442371
